The values that follow come from patent publication US8309097 (VERENIGING VOOR CHRISTELIJK WETENSCHAPPELIJK ONDERWIJS, dated 2012).

Read-outs that look alike come from different tables or passages of the source.

One experiment has as its target T1, ICAM-3 from granulocytes (UniProt P32942 30-547).
T1 construct: also called ICAM-3 captured or immunoprecipitated from granulocyte lysate
T1 sequence (looked up): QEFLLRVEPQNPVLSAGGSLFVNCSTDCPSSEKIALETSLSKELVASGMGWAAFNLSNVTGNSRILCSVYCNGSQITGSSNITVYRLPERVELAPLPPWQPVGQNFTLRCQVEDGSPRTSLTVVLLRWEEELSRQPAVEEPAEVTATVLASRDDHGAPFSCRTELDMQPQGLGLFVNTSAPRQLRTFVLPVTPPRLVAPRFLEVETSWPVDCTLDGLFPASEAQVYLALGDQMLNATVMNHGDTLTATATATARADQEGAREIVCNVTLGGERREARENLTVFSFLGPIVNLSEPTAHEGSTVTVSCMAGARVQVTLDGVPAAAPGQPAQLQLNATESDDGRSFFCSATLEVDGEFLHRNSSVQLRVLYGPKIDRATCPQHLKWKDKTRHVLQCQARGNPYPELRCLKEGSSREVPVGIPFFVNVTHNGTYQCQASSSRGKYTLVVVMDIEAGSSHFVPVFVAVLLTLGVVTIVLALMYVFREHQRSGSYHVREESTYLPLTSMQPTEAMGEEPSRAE
As to the kind of experiment: ELISA: ICAM-3 captured from granulocyte lysate by coated antibody, DC-SIGN-Fc added (FIG. 22C).

Experiment [1] has as its target T2, ICAM-3 coated on fluorescent beads (UniProt P32942 30-485).
T2 sequence: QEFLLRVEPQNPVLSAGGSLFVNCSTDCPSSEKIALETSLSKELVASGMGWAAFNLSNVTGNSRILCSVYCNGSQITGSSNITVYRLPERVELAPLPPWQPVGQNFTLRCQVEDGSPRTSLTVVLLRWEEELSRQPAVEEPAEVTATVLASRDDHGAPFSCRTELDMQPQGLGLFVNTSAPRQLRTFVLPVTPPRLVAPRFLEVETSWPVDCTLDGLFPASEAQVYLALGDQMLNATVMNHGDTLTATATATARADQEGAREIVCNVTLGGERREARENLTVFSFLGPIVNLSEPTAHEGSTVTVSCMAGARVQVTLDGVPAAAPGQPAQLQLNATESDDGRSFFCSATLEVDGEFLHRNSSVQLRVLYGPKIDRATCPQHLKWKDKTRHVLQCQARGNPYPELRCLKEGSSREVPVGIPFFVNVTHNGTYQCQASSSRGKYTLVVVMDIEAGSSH

A further experiment addresses T3, ICAM-3-Fc (UniProt P32942 30-485).
T3 construct: also called pIG-ICAM-3-Fc product; Fc chimera of ICAM-3
T3 sequence (looked up): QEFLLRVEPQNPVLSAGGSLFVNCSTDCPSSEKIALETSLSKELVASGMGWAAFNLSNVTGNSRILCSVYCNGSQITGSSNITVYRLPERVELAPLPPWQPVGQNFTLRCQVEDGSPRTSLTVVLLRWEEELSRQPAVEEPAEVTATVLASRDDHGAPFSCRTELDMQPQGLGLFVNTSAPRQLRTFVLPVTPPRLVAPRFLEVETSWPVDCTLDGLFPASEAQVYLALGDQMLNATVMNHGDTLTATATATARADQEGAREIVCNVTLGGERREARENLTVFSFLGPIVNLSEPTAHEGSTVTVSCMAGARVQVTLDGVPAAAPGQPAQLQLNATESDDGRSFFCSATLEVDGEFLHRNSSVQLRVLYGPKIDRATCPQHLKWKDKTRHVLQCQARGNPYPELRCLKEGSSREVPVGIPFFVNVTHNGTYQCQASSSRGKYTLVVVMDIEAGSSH
The experiment is described as follows: beads coated with ICAM-3-Fc, immature DC and K562-DC-SIGN.

Experiment [2] has as its target T2, ICAM-3 coated on fluorescent beads. The experiment is described as follows: fluorescent bead adhesion assay, K562 transfectants.

B1: DC-SIGN-Fc (Fc fusion, human, UniProt Q9NNX6 64-404, looked up, not shown: a dimerising Fc or GST)
chain: PSSISQEQSRQDAIYQNLTQLKAAVGELSEKSKLQEIYQELTQLKAAVGELPEKSKLQEIYQELTRLKAAVGELPEKSKLQEIYQELTWLKAAVGELPEKSKMQEIYQELTRLKAAVGELPEKSKQQEIYQELTRLKAAVGELPEKSKQQEIYQELTRLKAAVGELPEKSKQQEIYQELTQLKAAVERLCHPCPWEWTFFQGNCYFMSNSQRNWHDSITACKEVGAQLVVIKSAEEQNFLQLQSSRSNRFTWMGLSDLNQEGTWQWVDGSPLLPSFKQYWNRGEPNNVGEEDCAEFSGNGWNDDKCNLAKFWICKKSAASCSRDEEQFLSPAPATPNPPPA
notes: range 64-404; also called soluble DC-SIGN-Fc; DC-SIGN-Fe
Regarding B1, the binding result with ICAM-3 from granulocytes is given as “no binding”.

B2: DC-SIGN (CD209), wild type, expressed on K562 transfectants or immature dendritic cells (receptor, human, UniProt Q9NNX6 1-404, looked up)
chain: MSDSKEPRLQQLGLLEEEQLRGLGFRQTRGYKSLAGCLGHGPLVLQLLSFTLLAGLLVQVSKVPSSISQEQSRQDAIYQNLTQLKAAVGELSEKSKLQEIYQELTQLKAAVGELPEKSKLQEIYQELTRLKAAVGELPEKSKLQEIYQELTWLKAAVGELPEKSKMQEIYQELTRLKAAVGELPEKSKQQEIYQELTRLKAAVGELPEKSKQQEIYQELTRLKAAVGELPEKSKQQEIYQELTQLKAAVERLCHPCPWEWTFFQGNCYFMSNSQRNWHDSITACKEVGAQLVVIKSAEEQNFLQLQSSRSNRFTWMGLSDLNQEGTWQWVDGSPLLPSFKQYWNRGEPNNVGEEDCAEFSGNGWNDDKCNLAKFWICKKSAASCSRDEEQFLSPAPATPNPPPA
notes: whole, on cells; also called cellular DC-SIGN; K562-DC-SIGN
For B2, the binding result (in experiment [1]; with ICAM-3-Fc) was “binds” throughout.

B3: DC-SIGN E347Q mutant expressed by K562 cells (receptor)
chain: MSDSKEPRLQQLGLLEEEQLRGLGFRQTRGYKSLAGCLGHGPLVLQLLSFTLLAGLLVQVSKVPSSISQEQSRQDAIYQNLTQLKAAVGELSEKSKLQEIYQELTQLKAAVGELPEKSKLQEIYQELTRLKAAVGELPEKSKLQEIYQELTWLKAAVGELPEKSKMQEIYQELTRLKAAVGELPEKSKQQEIYQELTRLKAAVGELPEKSKQQEIYQELTRLKAAVGELPEKSKQQEIYQELTQLKAAVERLCHPCPWEWTFFQGNCYFMSNSQRNWHDSITACKEVGAQLVVIKSAEEQNFLQLQSSRSNRFTWMGLSDLNQEGTWQWVDGSPLLPSFKQYWNRGQPNNVGEEDCAEFSGNGWNDDKCNLAKFWICKKSAASCSRDEEQFLSPAPATPNPPPA
notes: whole, on cells
Take B3: in experiment [2], the binding result was “no binding”.
